Experimental data published in the supplement of paper PMC10567573.

B1: CDKN1A (parent)
chain: RRQTSMTDFYHSKRRLIFSKRKP
B2: GMCL1 (parent)
chain: RPDTGDDAAGHGFCYCAGSHKRKR

Variants of: B1
Test: protein stability index of a GFP-peptide fusion (GPS, HEK-293T) (PSI 1-6); higher = more stable
Settings: c terminus: native
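Further: lentivirally expressed fusions sorted by FACS into six bins by GFP to DsRed ratio, PSI derived from sequencing read proportions per bin multiplied by bin number.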

Protein stability index of substitutions, site by site:
R2: L 1.97 | M 4.02 | D 2.5 | W 2.28 | N 3.28 | A 2.1 | V 2.74 | G 3.55 | P 3.33 | K 1.75 | S 1.11 | I 2.89
Q3: F 2.24 | T 2.71 | R 2.49 | S 2.27 | L 4.67 | G 3.86 | K 2.72
R1: N 2.77 | A 1.71 | I 1.98 | Q 1.72 | W 2.69 | L 1.96 | K 2.57 | F 3.44 | E 3 | T 3.87 | Y 2.74 | V 2.34 | S 2.99 | G 1.02 | M 2.04
T4: W 4.11 | S 2.62 | Y 2.22 | C 2.33 | R 1.8 | V 3.23 | K 2.26 | A 2.23 | L 2.1 | F 2.21 | E 3.64 | P 2.86
S5: H 3.12 | R 2.53 | L 2.69 | K 2.87 | Q 2.55 | C 1.67 | G 3.9 | T 2.38 | A 3 | E 2.5 | N 1.73 | M 2.73 | F 1.93 | D 2.95 | P 1.9

Variants of: B2
Test: as above
Settings: c terminus: a fixed tail appended

Protein stability index, by site and new letter:
C14: R 4.87 | F 3.88 | E 4.99 | A 4.73 | M 4.9 | H 4.7 | N 4.62 | W 3.82 | Q 4.7 | K 4.98 | V 4.3 | P 4.31 | I 4.3 | D 4.75 | G 4.85 | T 4.89 | Y 4.88 | S 5.02 | L 3.66
F13: G 3.69 | W 3.45 | Q 3.9 | V 3.55 | A 3.12 | S 2.84 | R 2.94 | C 2.19 | I 3.02 | P 3.55 | T 3.34 | H 3.86 | L 2.87 | N 3.4 | Y 2.65 | D 3.82 | K 3.35 | M 3.25 | E 3.99
G10: S 2.95 | Y 2.91 | V 3.49 | W 2.84 | R 2.81 | Q 3.36 | T 3.18
C16: V 4.72 | D 5.04 | T 4.74 | Q 4.92 | W 4.36 | I 4.57 | H 3.87 | K 4.81 | R 4.59 | Y 4.09 | G 4.85 | M 4.17 | F 4.72 | P 4.71 | E 5.33 | A 4.94 | N 4.56 | S 4.97 | L 4.11
H20: E 3.3 | N 3.04 | V 2.79 | D 3.35 | W 2.62 | Y 3.12 | G 3.41 | S 3.95 | C 3.26 | T 3.05 | Q 3.59 | K 4.09 | R 3.31 | M 3.03 | P 2.85 | F 3.24 | I 3.9 | L 3.18 | A 3.15
A17: W 3.01 | V 2.56 | N 3.61 | Y 3.25 | H 2.29 | E 3.61 | S 2.77 | Q 3.02 | M 2.99 | R 2.9 | P 3.7 | D 3.68 | G 2.9 | C 2.05 | L 2.59 | T 3.13 | K 2.82 | F 2.2 | I 2.97
R22: A 2.76 | H 2.56 | N 2.62 | D 3.55 | K 3.08 | C 3.59 | E 3.56 | T 2.64 | I 3 | G 2.43 | V 2.65 | W 2.6 | Y 2.01 | S 2.77 | F 1.96 | L 2.57 | Q 2.66 | M 2.12 | P 2.79
Y15: P 3.36 | H 2.98 | Q 2.74 | N 2.43 | R 3.41 | A 3.12 | D 3.36 | L 2.84 | E 2.77 | F 2.6 | T 2.51 | M 2.89 | S 2.77 | G 3.35 | V 2.8 | I 3.09 | W 2.82 | C 2.68 | K 2.5
G18: A 3.24 | T 3.53 | E 3.6 | Y 2.98 | S 3.36 | I 2.9 | C 2.77 | V 2.75 | W 2.09 | L 2.66 | H 2.53 | N 2.85 | R 3.29 | K 3.58 | D 2.84 | Q 3.12 | F 2.7 | M 2.71 | P 3.53
K21: V 2.79 | Q 2.79 | W 2.29 | M 2.65 | T 2.74 | A 3.07 | G 2.39 | R 2.67 | E 2.57 | N 2.83 | Y 2.11 | D 3.15 | C 3.23 | L 2.69 | S 2.34 | I 2.01 | F 2.52 | P 3.03 | H 2.35
H11: K 3.16 | I 3.26 | V 2.75 | S 3.24 | P 3.21 | L 3.14 | R 3.43 | N 2.32 | A 3.64 | D 3.45 | F 3.27 | Q 3.22 | M 3.15 | G 3.18 | C 2.47 | T 4.18 | W 2.95 | E 3.49 | Y 2.84
S19: N 3.31 | L 2.82 | P 2.45 | I 2.96 | H 2.77 | A 3.62 | T 3.65 | W 2.45 | D 2.86 | R 3.26 | K 3.78 | E 2.98 | Q 3.16 | G 3.14 | Y 2.53 | V 2.72 | F 2.63 | M 2.52 | C 3.82
G12: H 3.05 | C 2.45 | Y 2.71 | S 2.88 | F 3.02 | T 3.62 | K 3.21 | E 2.9 | I 3.02 | M 2.79 | W 2.36 | A 2.52 | L 2.38 | V 3.73 | R 3.11 | D 3.14 | N 3.14 | P 3.1 | Q 3.16
K23: S 3.12 | M 2.32 | I 3.04 | N 3.03 | R 2.37 | A 2.2 | G 2.9 | Q 2.92 | D 3.33 | F 1.9 | H 3.1 | P 2.84 | E 2.94 | T 2.18 | C 3.71 | V 2.33 | Y 2.22 | L 2.16 | W 1.95
R24: S 3.47 | Y 3.75 | I 3.33 | F 3.18 | A 3.53 | L 2.66 | E 3.64 | C 4.32 | Q 3.35 | M 2.77 | T 3.04 | H 4.13 | N 3.84 | K 3.65 | W 2.87 | V 3.38 | P 3.94 | D 4.3 | G 3.4
